In patent publication US20030120038A1 (MERCK, published 2003):

Legend:
[1] = biological target: T1, sVEGF-RI, natural soluble form of the FLT VEGF receptor, expressed by baculovirus in Sf9 insect cells (human, UniProt P17948 27-656); assay: 96 well plate assay, sVEGF-RI absorbed to the plate, various amounts of [125I]VEGF, Scatchard analysis
T1 construct: also called sFLT; sFlt
Experimental: (§1) Briefly, sVEGF-RI, 50 to […] partially purified by Mono Q chromatography (Pharmacia), was diluted to 10 ml in 25 mM TRIS, pH 7.4, 100 mM NaCl, 20 mM NH₄HCO_{3.} Aliquots ([…]) were absorbed to the surface of a 96 well plate for 18 hours at 4° C., the plates were then washed twice with blocking buffer (DME, 25 mM HEPES, pH 7.5, 0.5% gelatin) and the nonspecific sites were blocked in the same buffer for 6 hours at 4° C. The plate was then washed twice in binding buffer. […] The wells were washed three times with […] of binding buffer, the bound protein was solubilized with […] of 1% SDS, 0.5% BSA and counted in a g counter. The results, shown in FIG. 7, were analyzed by the method of Scatchard [Scatchard, G., (1949) Ann. N.Y. Acad. Sci., 51, pp. 660-672].

[2] = biological target: T1, sVEGF-RI, natural soluble form of the …; assay: 96 well plate competition, immobilized sFLT, tracer [125I]PlGF, competitor unlabeled VEGF
Experimental: as §1

[3] = biological target: T1, sVEGF-RI, natural soluble form of the …; assay: 96 well plate competition, immobilized sFLT, tracer [125I]PlGF, competitor unlabeled PlGF
Experimental: as §1

[4] = biological target: T2, Ex-KDR, purified extracellular domain of the KDR VEGF receptor (UniProt P35968 20-764, limits assumed); assay: covalent crosslinking (BS3) of purified Ex-KDR with [125I]PlGF, SDS/PAGE
T2 construct: extracellular domain; It may be the same construct; also called extracellular region of KDR
T2 sequence (P35968 20-764 limits assumed): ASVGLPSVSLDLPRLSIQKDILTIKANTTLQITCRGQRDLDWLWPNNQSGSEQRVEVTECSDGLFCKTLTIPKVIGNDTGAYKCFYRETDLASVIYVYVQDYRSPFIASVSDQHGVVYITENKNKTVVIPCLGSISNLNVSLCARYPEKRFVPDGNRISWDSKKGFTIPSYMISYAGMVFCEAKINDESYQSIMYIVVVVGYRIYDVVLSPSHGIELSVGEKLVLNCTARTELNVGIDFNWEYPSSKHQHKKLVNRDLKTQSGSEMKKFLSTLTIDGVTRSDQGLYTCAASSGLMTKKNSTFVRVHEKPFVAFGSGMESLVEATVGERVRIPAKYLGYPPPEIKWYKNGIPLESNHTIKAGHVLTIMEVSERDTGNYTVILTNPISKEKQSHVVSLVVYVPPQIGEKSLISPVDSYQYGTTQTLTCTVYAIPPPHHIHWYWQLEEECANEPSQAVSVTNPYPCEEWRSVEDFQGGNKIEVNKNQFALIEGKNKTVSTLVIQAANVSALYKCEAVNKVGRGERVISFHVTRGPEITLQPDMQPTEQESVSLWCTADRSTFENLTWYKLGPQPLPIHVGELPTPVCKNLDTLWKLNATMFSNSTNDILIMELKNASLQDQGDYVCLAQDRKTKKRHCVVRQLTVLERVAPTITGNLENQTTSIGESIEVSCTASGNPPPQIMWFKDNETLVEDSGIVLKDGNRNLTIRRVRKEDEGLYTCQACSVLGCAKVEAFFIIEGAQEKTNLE
Experimental: The reactions were then crosslinked with 1 mM BS³ at 25° C. for 15 min followed by the addition of boiling Laemmli sample buffer (10). The crosslinked products were analyzed by SDS/7.5% PAGE and the complexes were visualized using a Phosphohnager (Molecular Dynamics, Sunnyvale, Calif.).
The reactions were then crosslinked with 1 mM BS³ at 25° C. for 15 min followed by the addition of boiling Laemmli sample buffer. The crosslinked products were analyzed by SDS/7.5% PAGE and the complexes were visualized using a Phosphohnager (Molecular Dynamics, Sunnyvale, Calif.).

[5] = biological target: T1, sVEGF-RI, natural soluble form of the …; assay: 96 well plate competition, immobilized sFLT; reference is PlGF displacing [125I]PlGF
Experimental: as §1

[6] = biological target: T1, sVEGF-RI, natural soluble form of the …; assay: 96 well plate competition, immobilized sFLT, tracer [125I]VEGF, competitor unlabeled PlGF
Experimental: as §1

T1 sequence (P17948 other isoform, or with tags, fused parts or gaps): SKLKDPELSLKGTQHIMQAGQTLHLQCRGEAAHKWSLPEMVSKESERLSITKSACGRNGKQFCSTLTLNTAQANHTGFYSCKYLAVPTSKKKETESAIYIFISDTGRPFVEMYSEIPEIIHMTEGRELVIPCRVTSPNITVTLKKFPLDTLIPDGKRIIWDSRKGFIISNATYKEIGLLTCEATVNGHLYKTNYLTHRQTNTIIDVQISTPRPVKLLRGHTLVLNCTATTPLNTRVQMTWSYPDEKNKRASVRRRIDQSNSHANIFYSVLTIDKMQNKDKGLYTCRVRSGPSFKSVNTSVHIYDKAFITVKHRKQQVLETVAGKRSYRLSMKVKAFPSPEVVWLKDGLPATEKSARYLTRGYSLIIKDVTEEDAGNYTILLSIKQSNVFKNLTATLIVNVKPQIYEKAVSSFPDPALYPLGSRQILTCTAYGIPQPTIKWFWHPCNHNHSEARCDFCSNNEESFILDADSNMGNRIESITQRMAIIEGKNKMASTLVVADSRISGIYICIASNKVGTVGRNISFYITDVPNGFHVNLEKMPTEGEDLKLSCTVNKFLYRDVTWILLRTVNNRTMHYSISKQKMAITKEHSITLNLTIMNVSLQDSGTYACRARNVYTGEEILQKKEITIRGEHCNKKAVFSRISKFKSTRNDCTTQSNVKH

Binder | Kd [1] [nM] | IC50 [2] [nM] | IC50 [3] [nM] | binding result [4] | fold higher concentration to displace 50% of [125I]VEGF than of [125I]PlGF [5] [fold] | IC50 [6] [nM]
human recombinant vascular endothelial cell growth factor (VEGF) (ligand, UniProt P15692-4 27-191, looked up, 125I label (chloramine T method) in the tracer form, also called unlabeled VEGF) APMAEGGGQNHHEVVKFMDVYQRSYCHPIETLVDIFQEYPDEIEYIFKPSCVPLMRCGGCCNDEGLECVPTEESNITMQIMRIKPHQGQHIGEMSFLQHNKCECRPKKDRARQENPCGPCSERRKHLFVQDPQTCKCSCKNTDSRCKARQLELNERTCRCDKPRR | ~0.02 | 0.01 |  |  |  | 
recombinant human PlGF (ligand, UniProt P49763-2 19-149, looked up, 125I label (chloramine T method) in the tracer form, also called PIGF) LPAVPPQQWALSAGNGSSEVEVVPFQEVWGRSYCRALERLVDVVSEYPSEVEHMFSPSCVSLLRCTGCCGDENLHCVPVETANVTMQLLKIRSGDRPSYVELTFSQHVRCECRPLREKMKPERCGDAVPRR |  |  | ~0.11 | no binding | ~5 | ~0.55
